B1: HA–YKT6-WT (full-length, siRNA-resistant) [human] / SNAP29 [human (endogenous in HEK293T)] (parent)
chain 1: MKLYSLSVLYKGEAKVVLLKAAYDVSSFSFFQRSSVQEFMTFTSQLIVERSSKGTRASVKEQDYLCHVYVRNDSLAGVVIADNEYPSRVAFTLLEKVLDEFSKQVDRIDWPVGSPATIHYPALDGHLSRYQNPREADPMTKVQAELDETKIILHNTMESLLERGEKLDDLVSKSEVLGTQSKAFYKTARKQNSCCAIM
chain 2: MSAYPKSYNPFDDDGEDEGARPAPWRDARDLPDGPDAPADRQQYLRQEVLRRAEATAASTSRSLALMYESEKVGVASSEELARQRGVLERTEKMVDKMDQDLKISQKHINSIKSVFGGLVNYFKSKPVETPPEQNGTLTSQPNNRLKEAISTSKEQEAKYQASHPNLRKLDDTDPVPRGAGSAMSTDAYPKNPHLRAYHQKIDSNLDELSMGLGRLKDIALGMQTEIEEQDDILDRLTTKVDKLDVNIKSTERKVRQL

Variants of: B1
Assay: immunoprecipitation followed by mass spectrometry
Conditions: with SNAP29 [human (endogenous in HEK293T)], 2 h EBSS and 300 nM Torin 1, read off a plot
[1] = YKT6 siRNA-treated HEK293T WT cells

| screen value (HEK293T WT cells) | screen value [1] | Variant |
| --- | --- | --- |
| -2.3 log2 | -2.3 log2 | chain 1 T156E |
| 2 log2 | 2 log2 | chain 1 T156A |
